Laboratory results taken from the DeepSol protein solubility set.

experiment: soluble on expression in E. coli; label from the status in PepcDB or PDB records

Sequence | soluble on expression in E. coli
MRLNHKQGTAGEDAALAFLQSQGCTLLARNWHCAYGEIDLIVKNGGMILFVEVKYRKNQRFGGAAYSISPSKLLKLQRSVEYYLQQNRLTNVPCRLDAVLIEGNRPPEWIKNITG | soluble
MDMELTYIYHSGFALSGDGFTVIMDYYRDSEDGQAQADLNRLMDGTFSNQEAGMPEGTVHSELLRRPGKLYVLASHFHPDHFNKEVLQWREQRPDIIYIFSKDILRHRRAQKEDAVWLKKGEEYKDETLSVRAFGSTDVGVSFLLQTGGKKIFHAGDLNNWHWMDESTEAEWKGAEKNFLHELDDLYAYTPEVDVAMFPVDPRLGKEYMRGAGQFVTKIKTHIFVPMHFTPEYAKANAFRDFAEAHGVRFVSLTHRGQKIEIE | soluble
MAHHHHHHMMSADPNSFEAIRPKLTAQTLQDIEGLDPQKYGFGREECCGPIPTKIIGSMSLREHIFLNTRMPAREWDKRTENVPGFKELSQRVKHALPDASFTVSHLDQDTEDSILHCKVDDDKKAVIITQYSSVSEPYELPWEVKGTLAVDRSGEYFIFVCSHFTRDARCGYCGSVLIDLFRHALLEKMGAGGTARVTVCSCSHVGGHVYAGNVIIYSRHGGICYGLFKPEDVLPVVDAIAEDKGAIPESLRNRIRGQMGSNAS | soluble
GPGSAEKKQKQHFYLTQEMPPRRDPERQRAKVAAATMAPSEHKKASLPPAKLRLNLGPFLPQKKKNRPPKTTEIDWGSEQTPRLQCSWHPQRRNGIVSFPVMMSYPVSCHCAAWGCHITRAYPTMTRQGAHRLASPKVGRPRRSTRKPDQK | soluble
NEIVSGKLRIAASASFGAALLSQTLIEFRLQHPQVSVEVIFTEAPLDLIEAGFDIAFYFTDTPPEGYVGHQLRTLHCKPIAHRSYLADKPNVSTPEDLGDLEHILYKSRDLVLDKWTFTHKQTQQQCRIELESTLSFNLVQSMLDATLAGCGVAMLDEFALAKLESAQKEQLVSLLPDWQTDAILPLYLLYPKREHLPRRTRAFIDHFRNIYSVGE | not soluble
MMINQKNDIPLCAQEFSKLTDPLYIKKICLEKVHDWSRCNEDDVCVNQILSGLTNQLFEVSIKEDTAIEYRITRRHVLFRIYGKDVDALYNPLSEFEVYKTMSKYRIAPLLLNTFDGGRIEEWLYGDPLSIDDLKNKSILVGIANVLGKFHTLSRKRHLPEHWDKTPCVFKMMDRWRLAVSNYKNLDKVTLDINKYIQESHKFLKFIKIYTQIENIANDIVFCHNDLQENNIMNTNKCLRLIDFEYSGYNFLSADIANFFIETTIDYSYNAYPFFIINKKNYISYESRILFVTTYLSKYLDDSTAASDQDIIDQFLEAIEVQALGLHLIWAFWSIIRGYQTKSYNEFDFFLYAKERLKMYDEQKQYLMSKNIIKD | not soluble
TARELLDADRGRDSMVAAAYHSGTLSGKTVTEAARQGDVFAIEVFDDFAEWMGRALSIVCDVLDPGQIVIGGGLSTSSDLFLEKATQHMAQQIVGAGYRPLPTVVCAELGGDAGMIGVSDLARRRV | not soluble
RAGLSKLPDLKDAEAVQKFFLEEIQLGEELLAQGDYEKGVDHLTNAIAVCGQPQQLLQVLQQTLPPPVFQMLLTKLPTISQRIVSAQSLGEDDVE | soluble
MYSMLKRVITEKDLLRQIRLLEQLLNVPQLTAKRLAAQIQTTERTVFSDLQYIRSQLPADWSIETDSSGIRLRNQGNAQTNELWSLFLPQSISIQLLKELLFTKELVTTSFLSTSGVSYETLKRHIKKMNQALRDFHLTIQLTTMTIQLIGAESNIRIFYHRLLVPFTHNNYFFDDYSIHEEHYFQFLKQVYSSELTVETEEIFGACWFFINTIRNKANCRVSQFSFDSKDVLFQLYQPSLAKLYASEGIYLQGEESFFAFFCFLESWNYDNVYGETLASALHTHYSQLRKSLQQFVTNLSTEEARPDLIQTNLLDNLLLLFIKYTESPTLSEQFQLEYQELMTEQAAEDLALSKSNQELLEILSRYTTIEEPTYFLSLASLLEKQAIYSIQAQTMTAYFLFQGEPAWKAFLQQELAAYLGTRVKLQAIEYVELSQLTLNEADIIISNFPLDHLDLPVFYLSLIPTKNELRRLAELTLHSYF | soluble
MKLVPDAFHPGYWGPLLSAHMPRTAYLPVSESFISALQRDSLNEADAERLQSDFSELIQGLSHAMDYLRTDHSTSEGFCPKLNGKLPYDAAWILGRHAPCCYTWNEAMMVLRASSRIHEPTRTSWQGSFCLVVQRWEQIHPANEFRCFISSCRVIAICQRHPDTPYPFLARERDRLVNAMVSFYETHVRPLHPAYAECILDCYLDDSQSVRTLGIDAWSDDALLLFEVSEMEALRAQAAAAFPGQHSDPDGHRQSEAPGEDATGATVSFRSVAQGFAAVPWGWSEKLPLELGDDFLRARIQRNASD | not soluble
MKETRDLETLSVNAIRFLAIDAVEKARSGHPGMPMGMAPLAYLLFREVMRHNPLDPDWPDRDRFVLSAGHGSMLLYAVLHLTGYDLPLEELKSFRQWGSKTPGHPERGHTPGVEVTTGPLGQGISTAVGLALAERKLAAEFNRPGHVVVDHYTYVLASDGDLMEGVSGEAASLAGHWGLSKLIVFWDDNRISIDGPTDLAFTEDVLARYRAYGWQTLRVEDVNDLEALRKAIKLAKLDERPTLIAVRSHIGFGSPKQDSAKAHGEPLGPEAVEATRRNLGWPYPPFVVPEEVYRHMDMREKGRAWQEAWEKALEAYARAYPDLHQELMRRLRGELPPLPEEPPSFDKPIATRAASGRALNLLAPRLPELLGGSADLTPSNNTKAEGMEDFSRANPLGRYLHFGVREHAMGAILNGLNLHGGYRAYGGTFLVFSDYMRPAIRLAALMGVPTVFVFTHDSIALGEDGPTHQPVEHLMSLRAMPNLFVIRPADAYETFYAWLVALRRKEGPTALVLTRQAVPLLSPEKARGLLRGGYVLEDVEEPQGVLVATGSEVHLALRAQALLREKGVRVRVVSLPSFELFAAQPEAYRKEVLPPGLPVVAVEAGASLGWERYAHKVVALDRFGASAPYPEVYERLGFTPERVAEAFLSLV | soluble
MSLENKMPKDFFWGNSTSSMQTEGGWNEGGKGPSVYDVNTAGRSAKDWQVTNDNYHHYSQDLDLMKEMNMNMYRFQISWSRIVPDGDGEFNEEGIAFYNRLIDDLLARGIEPMICLYHFDMPLNLAEKYNGFLSRKVKEAFVRFGQEMMKRFADKVKYWIVFNEHNLYFADGFEHYSGVLKKELTLSDMYTVFHHTMLAHCELTQFLHENFEAKIGGMLATTEIYPATFSPKDNLYLRKFDEFYNRNLCDVYAFGHYSHEVMTYVKNQNIQMDFQKGDEEILKNGISDFISFSYYRSILLDASQLTENDAPNSYLTKGMKLNPLLEHNQWDWSIDPEGFRRILSRLYNEFGLPVFPIENGIGQSEIWDGKTKIADDLRIFYHQKHLEAMKKAIFTDGVEVMGYLGWGLIDIPASSGAIDKRYGAVYVDPKSHKRIPKKSFHWFKNVFASNGDHLDEGHHHHHH | not soluble
